# In the RNAGym collection of RNA variant scans (doi:10.1101/gr.219683.116):
# B1: mRNA-splicing (parent)
# chain: AGUUGCUGCUGGGAGCUCCAGCACAGUGAAAUGGACAGAAGGGCAGAGCAA
# Variants of: B1
# Assay: exon inclusion enrichment index; higher = more inclusion; WT1 exon 5 minigene, HEK293
row,Variant,exon inclusion enrichment index
1,U3A G5U G8U C9U,0.513
2,G2U C6A U7A C9A U10A,1.36
3,U4A G5C C6G U7C U10C,2.75
4,G2C U3C G5A C6U U7A G8U C9A,0.0956
5,G2C U3C G5A C6G U7G C9A,0.0355
6,G2A U3G C6A U7C C9A U10C,2.22
7,U3A U4A G5A C6U U7A G8U C9A,0.0823
8,G2C U3C C6A U7A C9A U10A,0.779
9,U3A C6A U7A C9A U10A,0.664
10,G2C G5C C6G U7C U10C,2.87
11,U4A G5A G8U C9U,0.144
12,U3C G5C C6U G8C C9U U10C,0.338
13,U4G G5A C6A U7C G8A U10A,0.403
14,U4A G5A C6A U7A C9A U10A,0.0853
15,G2U U3G G5C C6U G8C C9U U10C,3.99
16,U4G C6A U7C C9A U10C,2.45
17,U4C G5C C6A U7C C9A U10C,3.54
18,U3C U4A C6A U7A C9A U10A,0.528
19,U4A C6G U7G C9A,0.00639
20,G2A U3A G5A U7C G8A U10C,2.08
21,G2A U3A G5C C6U G8C C9U U10C,1.94
22,U4A G5C C6A U7A C9A U10A,0.526
23,G2U U3G G5C C6G U7C U10C,5.1
24,G2U U3C C6A U7A C9A U10A,2.31

row,Variant,exon inclusion enrichment index
1,U4A G5A C6G U7C U10C,1.18
2,U3A U4A G5A U7C G8A U10C,2.15
3,U3G U4G C6A U7C C9A U10C,1.23
4,U3C U4A,0.0261
5,U3C U4G,0.0956
6,U3C U4C,0.208
7,U3G U4C G5C C6U G8C C9U U10C,1.03
8,U3C G5C C6G U7C U10C,1.22
9,U3A U4C C6A U7A C9A U10A,1.27
10,G2C U3A G5C C6A U7C G8A U10A,0.0802
11,G2A U3G G5A U7C G8A U10C,1.76
12,G2A U3C G5C C6G U7C U10C,3.58
13,U4A G5C C6A U7C G8A U10A,0.0584
14,G2A U3C C6A U7C C9A U10C,3.17
15,U3G U4A G5C C6A U7C G8A U10A,0.0657
16,G2U U3A G5C C6G U7C U10C,5.21
17,G2C U3A G5U G8U C9U,0.19
18,U4A G5U C6U U7A G8U C9A,0.0503
19,U4G C6U U7A G8U C9A,0.0761
20,G2U U3C G5A C6U U7A G8U C9A,0.557
21,U3A U4G C6A U7A C9A U10A,0.245
22,U3G G5U G8U C9U,0.0452
23,U3A U4C G5C C6G U7C U10C,3.45
24,G2C U3C G5U G8U C9U,0.29

row,Variant,exon inclusion enrichment index
1,U3A G5A C6U U7A G8U C9A,0.265
2,U3C G5C C6A U7C G8A U10A,0.0284
3,U4A G5C C6U G8C C9U U10C,1.68
4,G2C U3A G5A U7C G8A U10C,1.93
5,U4A C6A U7C C9A U10C,1.35
6,U4G G5A C6G U7G C9A,0.00812
7,U3G C6A U7A C9A U10A,0.238
8,U3A U4G G5A U7C G8A U10C,3.06
9,G2C C6A U7C C9A U10C,2.9
10,U3C U4A G5A U7C G8A U10C,2.12
11,G2U U3A G5C C6U G8C C9U U10C,3.36
12,G2C U3A G5C C6G U7C U10C,3.34
13,U4A G5U C6A U7C G8A U10A,0.0592
14,U4C G5A C6U G8C C9U U10C,1.56
15,U3G G5A C6G U7G C9A,0.0125
16,U4G C6G U7G C9A,0.0187
17,G2A,0.419
18,G2U,0.476
19,G2C,0.141
20,U4A C6U G8C C9U U10C,0.0827
21,U3C G5A U7C G8A U10C,1.28
22,G2U U3G G5U G8U C9U,0.724
23,U3G U4A G5A U7C G8A U10C,2.25
24,U4C G5A C6G U7G C9A,0.0522

row,Variant,exon inclusion enrichment index
1,G2A U3C G5A C6U U7A G8U C9A,0.0801
2,U4C G5A G8U C9U,0.77
3,G2U U3C G5C C6G U7C U10C,5.85
4,U4C C6U G8C C9U U10C,2.37
5,G2U G5U G8U C9U,0.329
6,U3C,0.011
7,U3G,0.0194
8,U3A,0.364
9,U3G U4A G5C C6G U7C U10C,2.08
10,U3C U4C G5C C6A U7C G8A U10A,0.144
11,U4G C6A U7A C9A U10A,0.488
12,G2C G5C C6U G8C C9U U10C,1.41
13,U3G U4C G5A U7C G8A U10C,2.37
14,U3C U4G G5A C6U U7A G8U C9A,0.312
15,U3C U4C G5C C6U G8C C9U U10C,0.521
16,G2U C6A U7C C9A U10C,4.3
17,G2U G5C C6G U7C U10C,4.96
18,U4C C6G U7G C9A,0.355
19,G2A U3G G5C C6U G8C C9U U10C,1.42
20,U3A U4G G5A C6U U7A G8U C9A,0.0692
21,U4G C6U G8C C9U U10C,0.778
22,U3A U4G G5C C6A U7C G8A U10A,0.0901
23,U4A G5A C6A U7C C9A U10C,2.23
24,U3A U4C G5C C6A U7C G8A U10A,0.389

row,Variant,exon inclusion enrichment index
1,U3C U4G G5A U7C G8A U10C,2.97
2,G2A U3A,0.0502
3,G2A U3G,0.0392
4,G2A U3C,0.0113
5,U3C U4C G5U G8U C9U,0.335
6,U3A U4C C6A U7C C9A U10C,4.11
7,U4G G5A C6G U7C U10C,2.22
8,G2C U3C G5A U7C G8A U10C,2.27
9,G2C U3G G5C C6U G8C C9U U10C,1.98
10,G2C U3G C6A U7C C9A U10C,3.19
11,U3A U4A G5U G8U C9U,0.296
12,U4C G5A C6A U7C C9A U10C,4.23
13,U3C U4G C6A U7C C9A U10C,2.89
14,G2C G5A C6U U7A G8U C9A,0.0726
15,U3C U4G C6A U7A C9A U10A,0.667
16,U4C G5A C6G U7C U10C,3.53
17,G2C G5U G8U C9U,0.122
18,U3A U4A G5C C6G U7C U10C,3.05
19,G2A G5A C6U U7A G8U C9A,0.211
20,G2U U3C C6A U7C C9A U10C,4.67
21,U3A U4A G5A C6G U7G C9A,0.0117
22,G2A U3A G5C C6G U7C U10C,3.39
23,U4A G5U U7C G8A U10C,2.36
24,U4A G5C G8U C9U,0.718

row,Variant,exon inclusion enrichment index
1,U3A U4G C6A U7C C9A U10C,1.54
2,G2U U3A G5A C6U U7A G8U C9A,0.247
3,U3G G5C C6U G8C C9U U10C,0.696
4,G2C U3G G5A C6U U7A G8U C9A,0.0859
5,U3C U4C G5A C6U U7A G8U C9A,0.481
6,U4C G5C C6A U7A C9A U10A,1.37
7,U3C U4C G5A C6G U7G C9A,0.127
8,U4A G5C C6A U7C C9A U10C,2.5
9,U4C G5C C6U G8C C9U U10C,2.17
10,G2A U3G G5C C6A U7C G8A U10A,0.0866
11,U4A G5A C6G U7G C9A,0.0163
12,U3C U4G G5C C6U G8C C9U U10C,1.28
13,G2A U3G G5C C6G U7C U10C,2.14
14,U4C U7C G8A U10C,3.91
15,G2U G5A C6U U7A G8U C9A,0.188
16,U4A G5C C6U U7A G8U C9A,0.177
17,U3C U4A C6A U7C C9A U10C,2.21
18,G2A U3G G5A C6U U7A G8U C9A,0.0498
19,U3G U4G G5C C6A U7C G8A U10A,0.0147
20,G2A G5U G8U C9U,0.53
21,U4A G5U C6A U7C C9A U10C,2.45
22,U3G U4G G5A C6G U7G C9A,0.00966
23,U3G G5C C6A U7C G8A U10A,0.043
24,U4G C6G U7C U10C,0.838

row,Variant,exon inclusion enrichment index
1,G2U U3A G5A U7C G8A U10C,3.36
2,U3A U4C,0.355
3,U3A U4G,0.0422
4,U3A U4A,0.0787
5,U3C C6A U7C C9A U10C,3.44
6,U4A G5A C6U U7A G8U C9A,0.0542
7,G2A U3G G5A C6G U7G C9A,0.00228
8,G2A G5A U7C G8A U10C,3.39
9,U3A U4G G5C C6G U7C U10C,1.31
10,G2A U3G G5U G8U C9U,0.0993
11,U3G U4A G5A C6U U7A G8U C9A,0.0777
12,G2U G5C C6A U7C G8A U10A,0.329
13,U4C G5C U7C G8A U10C,1.51
14,G2C U3C G5C C6A U7C G8A U10A,0.119
15,U4A G5A U7C G8A U10C,2
16,U3A U4C G5C C6U G8C C9U U10C,2.23
17,G2U U3G C6A U7C C9A U10C,4.84
18,G2A U3A G5U G8U C9U,0.155
19,U3C U4G G5U G8U C9U,0.61
20,U3C G5U G8U C9U,0.0225
21,U3A G5C C6A U7C G8A U10A,0.475
22,U4C C6A U7A C9A U10A,1.51
23,U4A C6G U7C U10C,0.262
